Results from US20060026702A1, “Phosphoinositide 3-kinase mediated inhibition of GPCRs” (DUKE UNIVERSITY, priority 2002, published 2006).
Each block holds one molecule with its values, some of them ahead of it.

What was measured:
βARK1/PI3K interaction = target: T1, βARK1/PI3K interaction (Bos taurus, UniProt P21146); assay: βARK1 associated PI3K activity in HEK 293 cells co-transfected with HEAT or PI3KΔHEAT; format: cell-based; conditions: 4 μg cDNA co-transfected with βARK1
T1 construct: recognizes both full length βARK1 and the βARKct; expressed in transfected cells; host or cells: HEK 293
T1 sequence (P21146 1-689): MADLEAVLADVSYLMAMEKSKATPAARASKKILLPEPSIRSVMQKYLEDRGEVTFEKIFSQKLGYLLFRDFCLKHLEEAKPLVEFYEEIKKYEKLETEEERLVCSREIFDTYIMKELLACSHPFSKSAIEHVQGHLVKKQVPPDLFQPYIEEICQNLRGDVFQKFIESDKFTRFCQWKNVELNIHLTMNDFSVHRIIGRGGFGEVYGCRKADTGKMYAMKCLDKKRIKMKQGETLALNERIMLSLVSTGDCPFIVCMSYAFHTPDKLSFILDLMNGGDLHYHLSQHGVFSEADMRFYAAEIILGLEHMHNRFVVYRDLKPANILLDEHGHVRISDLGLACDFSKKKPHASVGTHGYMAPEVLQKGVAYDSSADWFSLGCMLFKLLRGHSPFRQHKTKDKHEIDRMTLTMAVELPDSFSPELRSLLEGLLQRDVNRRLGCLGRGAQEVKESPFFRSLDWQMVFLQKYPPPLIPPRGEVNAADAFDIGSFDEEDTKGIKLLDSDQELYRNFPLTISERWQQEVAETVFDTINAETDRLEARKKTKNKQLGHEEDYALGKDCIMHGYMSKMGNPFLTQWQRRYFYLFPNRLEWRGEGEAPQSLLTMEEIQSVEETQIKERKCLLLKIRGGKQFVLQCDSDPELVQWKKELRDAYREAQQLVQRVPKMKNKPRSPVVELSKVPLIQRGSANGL
Protocol: The present inventors determined that overexpression of the 197 amino acid HEAT domain of PI3K competed for endogenous PI3K binding to βARK1 in living cells. HEK 293 cells were co-transfected with plasmids containing the βARK1 cDNA (2 μg) and increasing concentrations of the HEAT domain cDNA (ranging from 0 to 6 μg). […] The maximal reduction of βARK1 associated PI3K activity occurred when cells were co-transfected with 4 μg of HEAT cDNA (FIG. 9B). Summary results of n=5 experiments. *, p<0.0005. The data was normalized to βARK1 associated PI3K activity in cells transfected with βARK1 only. Furthermore, FLAG tagged HEAT protein co-immunoprecipitated with βARK1 monoclonal antibodies in the co-transfected HEK 293 cells.
The absence of the HEAT domain in an otherwise intact PI3K molecule affected the association of βARK1 with endogenous PI3K in cells. HEK 293 cells were co-transfected with plasmids containing cDNAs for βARK1 (2 μg), βARK1 plus HEAT (4 μg), and βARK1 plus PI3KΔHEAT (4 μg). Cell lysates were immunoprecipitated with a βARK1 monoclonal antibody and assayed for the associated PI3K activity. Expression of PI3KΔHEAT had no effect on the endogenous βARK1/PI3K interaction, whereas overexpression of HEAT abolished this interaction (FIGS. 9C and 9D). […] The data was normalized to βARK1 associated PI3K activity in cells transfected with βARK1 only.
Cytosolic and membrane fractions were prepared and analyzed for βARK1 associated PI3K activity. […] Membrane fractions were prepared from the HEK293 cells co-transfected with the βARK1 (2 μg), βARK1 and HEAT domain (4 μg) containing plasmids.

βARK1 = target: T2, βARK1 (Bos taurus, UniProt P21146); assay: Co-immunoprecipitation and GST pull-down with purified βARK1; format: binding; conditions: immunoprecipitated FLAG-HEAT or PI3KΔHEAT-HA
T2 construct: gift from Dr. Robert Lefkowitz
T2 sequence (P21146 1-689): T1 sequence (P21146 1-689)
Protocol: GST Fusion Protein Expression and Pull-down Experiments—Plasmid DNAs were transformed in Escherichia coli BL21 cells. Overnight cultures were grown in LB medium supplemented with ampicillin (100 μg/ml), diluted to an A600 of 0.2 in the same medium and grown for another 1 hr at 37° C. Cultured cells were then induced with 0.1 mM isopropyl-1-thio-β-D-galactopyranoside for 2 hr. Cell were then pelleted, washed once with 1× phosphate-buffered saline and resuspended in 1× phosphate-buffered saline containing 1 mM phenylmethylsulfonyl fluoride, 2 mg/ml lysozyme and incubated for 15 min on ice. Cells were lysed by adding Triton X-100 1%. Solublized cells were incubated with DNase (300 units) for 15 min on ice and centrifuged at 13,000 rpm for 10 min.
Glutathione-Sepharose beads were added to the supernatant and gently agitated at 4° C. for 2 hr. Beads were washed three times with ice cold 1×PBS containing 1% Triton X-100 followed by three washes with cold PBS without detergent. Protein concentration was determined using a DC protein assay kit (Bio Rad), and the integrity of the fusion protein was analyzed by SDS-polyacrylamide gel electrophoresis and Coomassie staining.
The beads were spun and washed three times with binding buffer followed by three washes with binding buffer without detergent. The beads were resuspended in SDS gel loading buffer and resolved by gel electrophoresis, immunblotting and detection was carried out described later.
FLAG-HEAT and PI3KΔHEAT proteins were immunoprecipitated from cell extracts using monoclonal FLAG and HA antibodies respectively, fractionated by SDS-PAGE and analyzed by immunoblotting with βARK1 monoclonal antibody. […] Levels of expression of HEAT and PI3KΔHEAT proteins were similar (FIG. 8B, lower panel).
To investigate whether there was a direct physical interaction between the HEAT domain of PI3K and βARK1, GST-HEAT fusion protein containing 535-732 amino acid residues of PI3Kγ was produced, which including the entire HEAT domain and flanking upstream 10 amino acids and downstream 7 amino acids. […]

[1] = Catalytic (lipid kinase) activity of PI3K mutant; format: biochemical; conditions: compared with wild type PI3K
Source text: PI3KΔHEAT was constructed using 2 PCR reactions that selectively amplified regions of PI3K upstream and downstream from the HEAT domain (FIG. 8a). The region of PI3K upstream from HEAT was amplified using the forward primer (5′-[…]-3′) containing a BamHI site and Kozak consensus sequence, and the reverse primer (5′-[…]-3′) containing a SacI site. The region of PI3K downstream of the HEAT domain was amplified using the forward primer (5′-[…]-3′) containing a SacI site and the reverse primer (5′-[…]-3′) containing a BamHI site and a consensus stop codon. The upstream and downstream regions of PI3K were separately subcloned in the zero-blunt TOPO vector and sequence was verified by dideoxy sequencing. Following digestion with the restriction enzymes BamHI/SacI, a three fragment ligation was carried with the mammalian expression vector pRK5, to generate the plasmid containing the PI3KΔHEAT cDNA (FIG. 8a). […] The plasmids containing cDNAs encoding βARK1, FLAG-β2AR, HA-β2AR and p110γ have been described previously.

PI3K [2] = target: T3, PI3K (Homo sapiens, UniProt P48736); assay: βARK1 associated PI3K activity (lipid kinase assay) in transfected NIH-3T3 cells; format: cell-based, Mouse; conditions: co-transfected βARKct cDNA; isoproterenol 2 min
T3 construct: expressed in transfected cells; host or cells: NIH-3T3
Protocol: (§1) Cell Culture—Mouse NIH-3T3 and HEK293 cells were maintained in either Iscoves modified Dulbecco's medium or minimal essential medium (MEM) supplemented with 10% fetal bovine serum and 1:100 penicillin-streptomycin (10,000 U/ml) at 37° C. Cells were seeded at a density of ˜1-3×10^5 cells/35 mm^2 dish and at 70-80% confluence were transiently transfected using the transfection reagent FUGENE6 (ROCHE) or calcium phosphate precipitation. Cells were harvested 24 hours after transfection, re-plated in triplicate, allowed to grow overnight and serum starved for 2-4 hours before agonist stimulation.
(§2) Cytosolic and Membrane Fractionation—Cell monolayers were scraped in 1 ml of buffer containing 25 mM Tris-HCl (pH 7.5), 5 mM EDTA, 5 mM EGTA, 1 mM phenylmethylsulfonyl fluoride, 2 μg/ml each of leupeptin and aprotinin and disrupted further by using Dounce homogenizer. Intact cells and nuclei were removed by-centrifugation at 1,000×g for 5 min. The collected supernatant was further subject to a centrifugation at 38,000×g for 25 min. The pellet was resuspended in lysis buffer (1% Nonidet P-40, 10% glycerol, 137 mM NaCl, 20 mM Tris-Cl (ph 7.4), 1 mM phenylmethylsulfonyl fluoride, 20 mM NaF, 1 mM sodium pyrophosphate, 1 mM sodium orthovanadate and 2 μg/ml each of aprotinin and leupeptin) and used as membrane fraction and the supernatant was diluted in lysis buffer and used as the cytosolic fraction.
(§3) Lipid Kinase Assays—Cells were lysed in lysis buffer and 2 mg cytosolic extract was used for immunoprecipitation with either the C5/1 monoclonal antibody directed against βARK1, the anti-FLAG M2 monoclonal antibody (Sigma) or antibodies to p110γ, or p110β (Santa Cruz Biotechnology) and protein G-agarose. Sedimented beads were then washed once with 1 ml of lysis buffer, thrice with 1 ml of phosphate-buffered saline (1× phosphate-buffered saline, 1% NP-40 and 100 μM sodium orthovanadate), thrice with 1 ml of Tris/LiCl (100 mM Tris-HCl (pH 7.4), 5 mM LiCl and 100 μM sodium orthovanadate) and twice with TNE (10 mM Tris Cl (pH 7.4), 150 mM NaCl, 5 mM EDTA and 100 μM sodium orthovanadate). Samples were then resuspended in 50 ml of TNE and 10 μl of 100 mM MgCl2 was added to each sample. The substrate, phosphatidylinositol (PI, Avanti), was prepared by drying 50 μl of the 10 mg/ml stock (PI in chloroform) in an eppendorf tube with a stream of air and adding 250 μl of TE (10 mM Tris Cl (pH 7.4) and 1 mM EDTA). The PI was then suspended by sonication in an ice bath for 3 minutes. 10 p, of the PI solution and 11 μl of ATP solution (440 μM cold ATP and 1 μCi/μl of [γ-32P]ATP) were added to each sample. […] Autoradiography of dried plates was used to detect signals, and PIP was quantified by phosphorimaging. […] Values are expressed as fold increase/decrease relative to wild-type/control.

PI3K [3] = target: T4, PI3K (Homo sapiens, UniProt P48736, DEL30-30/Q459R); assay: as above; format: cell-based, Mouse; conditions: co-transfected βARKct cDNA
T4 construct: expressed in transfected cells; host or cells: NIH-3T3
T4 sequence (P48736 with tags, fused parts or gaps DEL30-30/Q459R): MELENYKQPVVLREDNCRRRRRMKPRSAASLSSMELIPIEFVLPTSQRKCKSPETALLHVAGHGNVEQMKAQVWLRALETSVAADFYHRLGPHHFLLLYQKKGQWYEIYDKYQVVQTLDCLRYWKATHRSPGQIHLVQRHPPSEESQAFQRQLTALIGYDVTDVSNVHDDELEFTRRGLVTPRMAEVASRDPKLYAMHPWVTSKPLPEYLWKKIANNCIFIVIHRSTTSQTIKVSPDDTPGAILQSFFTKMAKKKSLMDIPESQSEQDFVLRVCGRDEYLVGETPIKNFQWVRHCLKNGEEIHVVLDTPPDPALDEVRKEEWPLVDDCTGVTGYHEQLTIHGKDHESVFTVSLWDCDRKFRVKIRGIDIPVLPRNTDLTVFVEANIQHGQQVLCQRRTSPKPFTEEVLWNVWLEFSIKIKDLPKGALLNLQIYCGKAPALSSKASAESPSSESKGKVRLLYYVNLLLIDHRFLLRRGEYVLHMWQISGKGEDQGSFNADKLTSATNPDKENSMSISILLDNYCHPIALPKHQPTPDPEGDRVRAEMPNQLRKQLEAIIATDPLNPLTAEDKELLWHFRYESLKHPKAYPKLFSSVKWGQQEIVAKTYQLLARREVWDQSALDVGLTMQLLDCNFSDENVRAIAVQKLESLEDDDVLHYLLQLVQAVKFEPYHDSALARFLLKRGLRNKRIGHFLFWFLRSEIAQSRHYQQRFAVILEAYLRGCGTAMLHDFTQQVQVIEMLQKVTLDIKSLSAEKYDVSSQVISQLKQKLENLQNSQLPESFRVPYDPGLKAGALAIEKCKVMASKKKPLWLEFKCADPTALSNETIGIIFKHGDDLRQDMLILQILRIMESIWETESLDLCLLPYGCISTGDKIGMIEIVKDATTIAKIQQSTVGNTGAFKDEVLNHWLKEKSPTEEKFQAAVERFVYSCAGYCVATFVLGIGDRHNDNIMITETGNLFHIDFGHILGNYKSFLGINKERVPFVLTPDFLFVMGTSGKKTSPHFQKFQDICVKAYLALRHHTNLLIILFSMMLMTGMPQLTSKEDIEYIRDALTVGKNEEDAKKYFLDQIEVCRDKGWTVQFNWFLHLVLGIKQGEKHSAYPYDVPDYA
Protocol: as §1, §2, §3

T3 sequence (P48736 with tags, fused parts or gaps DEL30-30/Q459R): as above

association with purified βARK1 (immune complexes from HEK 293 extracts) (βARK1): not
B1: PI3KΔHEAT: HA tagged PI3K mutant with a deletion of the HEAT domain (protein)
chain: MELENYKQPVVLREDNCRRRRRMKPRSAASLSSMELIPIEFVLPTSQRKCKSPETALLHVAGHGNVEQMKAQVWLRALETSVAADFYHRLGPHHFLLLYQKKGQWYEIYDKYQVVQTLDCLRYWKATHRSPGQIHLVQRHPPSEESQAFQRQLTALIGYDVTDVSNVHDDELEFTRRGLVTPRMAEVASRDPKLYAMHPWVTSKPLPEYLWKKIANNCIFIVIHRSTTSQTIKVSPDDTPGAILQSFFTKMAKKKSLMDIPESQSEQDFVLRVCGRDEYLVGETPIKNFQWVRHCLKNGEEIHVVLDTPPDPALDEVRKEEWPLVDDCTGVTGYHEQLTIHGKDHESVFTVSLWDCDRKFRVKIRGIDIPVLPRNTDLTVFVEANIQHGQQVLCQRRTSPKPFTEEVLWNVWLEFSIKIKDLPKGALLNLQIYCGKAPALSSKASAESPSSESKGKVRLLYYVNLLLIDHRFLLRRGEYVLHMWQISGKGEDQGSFNADKLTSATNPDKENSMSISILLDNYCHPIALPKHQPTPDPEGDRGTAMLHDFTQQVQVIEMLQKVTLDIKSLSAEKYDVSSQVISQLKQKLENLQNSQLPESFRVPYDPGLKAGALAIEKCKVMASKKKPLWLEFKCADPTALSNETIGIIFKHGDDLRQDMLILQILRIMESIWETESLDLCLLPYGCISTGDKIGMIEIVKDATTIAKIQQSTVGNTGAFKDEVLNHWLKEKSPTEEKFQAAVERFVYSCAGYCVATFVLGIGDRHNDNIMITETGNLFHIDFGHILGNYKSFLGINKERVPFVLTPDFLFVMGTSGKKTSPHFQKFQDICVKAYLALRHHTNLLIILFSMMLMTGMPQLTSKEDIEYIRDALTVGKNEEDAKKYFLDQIEVCRDKGWTVQFNWFLHLVLGIKQGEKHSAYPYDVPDYA
endogenous βARK1/PI3K interaction (βARK1/PI3K interaction): no effect | catalytic activity [1]: indistinguishable from wild type PI3K

B2: βARKct: carboxyl terminus of βARK1 that attenuates the Gβγ dependent signaling (protein)
chain: GIKLLDSDQELYRNFPLTISERWQQEVAETVFDTINAETDRLEARKKTKNKQLGHEEDYALGKDCIMHGYMSKMGNPFLTQWQRRYFYLFPNRLEWRGEGEAPQSLLTMEEIQSVEETQIKERKCLLLKIRGGKQFVLQCDSDPELVQWKKELRDAYREAQQLVQRVPKMKNKPRSPVVELSKVPLIQRGSANGL
agonist-dependent translocation of βARK1 associated PI3K activity to the membrane (PI3K [2]): abolished | βARK1 associated PI3K activity in the cytosolic fraction (PI3K [3]): loss
